Read-outs that look alike come from different tables or passages of the source.
Tests used:
macaca GM-CSF [1] = target: T1, macaca GM-CSF (Macaca mulatta (identical in Macaca …, UniProt Q0MUT8 18-144 (Chlorocebus aethiops entry), limits assumed)); assay: cell-based or functional assay
T1 chain: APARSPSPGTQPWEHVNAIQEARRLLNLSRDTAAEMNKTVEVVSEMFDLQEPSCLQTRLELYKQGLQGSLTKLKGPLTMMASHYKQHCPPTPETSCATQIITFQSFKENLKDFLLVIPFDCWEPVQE

human GM-CSF I117 [2] = target: T2, human GM-CSF I117 (human, UniProt P04141 18-144); assay: cell-based or functional assay
human GM-CSF T117 [3] = target: T3, human GM-CSF T117 (human, UniProt P04141 18-144); assay: cell-based or functional assay
macaca GM-CSF [4] = target: T1, macaca GM-CSF; assay: cell-based or functional assay
human GM-CSF I117 [5] = target: T2, human GM-CSF I117; assay: cell-based or functional assay; remark: listed apart in the source
Target sequence in this assay (P04141 18-144 limits assumed): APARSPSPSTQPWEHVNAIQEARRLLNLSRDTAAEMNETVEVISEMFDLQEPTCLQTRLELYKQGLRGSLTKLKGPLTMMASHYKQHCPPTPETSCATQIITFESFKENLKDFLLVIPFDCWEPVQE

human GM-CSF T117 [6] = target: T3, human GM-CSF T117; assay: cell-based or functional assay; remark: listed apart in the source
Target sequence in this assay (P04141 18-144 I117T limits assumed): as the sequence (P04141 18-144 limits assumed) above, with I100T counted along it

macaca GM-CSF [7] = target: T1, macaca GM-CSF; assay: cell-based or functional assay
human GM-CSF I117 [8] = target: T2, human GM-CSF I117; assay: cell-based or functional assay; remark: listed apart in the source
human GM-CSF T117 [9] = target: T3, human GM-CSF T117; assay: cell-based or functional assay; remark: listed apart in the source
macaca GM-CSF [10] = target: T1, macaca GM-CSF; assay: cell-based or functional assay
human GM-CSF I117 [11] = target: T2, human GM-CSF I117; assay: cell-based or functional assay; remark: listed apart in the source
human GM-CSF T117 [12] = target: T3, human GM-CSF T117; assay: cell-based or functional assay; remark: listed apart in the source
human GM-CSF I117 [13] = target: T2, human GM-CSF I117; assay: KinExA, affinity in solution
Description: (§1) The 4K21 and reference antibodies were incubated at concentration below the expected Kd with serial dilutions of human GM-CSF I117 or T117, or macaca GM-CSF up to equilibrium. The remaining free antibody was measured in a Kinetic exclusion assay with the KinExA® instrument. Kd was calculated by fitting the curve of the signal obtained versus the GM-CSF concentrations. The average of two experiments using different IgG concentrations was calculated.

human GM-CSF T117 [14] = target: T3, human GM-CSF T117; assay: KinExA, affinity in solution
Description: as §1

macaca GM-CSF [15] = target: T1, macaca GM-CSF; assay: KinExA, affinity in solution
Description: as §1

human GM-CSF I117 [16] = target: T2, human GM-CSF I117; assay: TF-1 proliferation assay and KinExA

B1: humanized parental anti-GM-CSF 4K21 VH3-07.1AL+VK2-A3.2 hIgG1K antibody (MSB0010439) (antibody, V domains shown)
VH: EVQLVESGGGLVQPGGSLRLSCAASGFAFSAYDMSWVRQAPGKRLELVAYISSGGSSFYYPDTVKGRFTISRDNAKNSLYLQMNSLRAEDTAVYYCTRHLGFDYWGQGTLVTVSS
VL: DIVMTQSPLSLPVTPGEPASISCRSSQSLVNSNGNTYLHWYLQKPGQSPQLLIYKVSNRFSGVPDRFSGSGSGTDFTLKISRVEAEDVGVYYCSQSTHVPPTFGQGTKVEIK
notes: Human IgG1 kappa; also called humanized parental 4K21 hVH hVL; parental 4K21
**Q.** How did the “neutralizing the orthologs of cynomolgus and rhesus monkeys (TF-1 proliferation assay)” value (macaca GM-CSF [1]) turn out when B1 was run?
**A.** The value was < 10 fold.

**Q.** And the “IC50, inhibition of GM-CSF induced TF-1 proliferation (32 pM GM-CSF)” value (“IC50, inhibition … (32 pM GM-CSF)” for short) (human GM-CSF I117 [2])?
**A.** The value was 98 pM.

**Q.** What about the “Fold human T117/I117 (IC50, TF-1 proliferation)” value (human GM-CSF T117 [3]) of the same binder?
**A.** The value was 9.7 fold.

**Q.** And the “IC50, inhibition … (32 pM GM-CSF)” value (human GM-CSF T117 [3])?
**A.** The value was 947 pM.

**Q.** What about the “Fold macaca/human I117 (IC50, TF-1 proliferation)” value (macaca GM-CSF [4]) of the same binder?
**A.** The value was 5.7 fold.

**Q.** What about the “IC50, inhibition … (32 pM GM-CSF)” value (macaca GM-CSF [4]) of the same binder?
**A.** The value was 557 pM.

**Q.** And the “Fold improvement of 4K21 H93Y alone on I117 (IC50, TF-1 proliferation)” value (human GM-CSF I117 [5])?
**A.** The value was 0.2 fold.

**Q.** What about the “Fold improvement of humanized parental 4K21 on I117 (IC50, TF-1 proliferation)” value (human GM-CSF I117 [5]) of the same binder?
**A.** Its value is 1 fold.

**Q.** What about the “IC50, inhibition … (32 pM GM-CSF)” value (human GM-CSF I117 [5]) of the same binder?
**A.** The value was 121 pM.

**Q.** And the “Fold human T117/I117 (IC50, TF-1 proliferation)” value (human GM-CSF T117 [6])?
**A.** Its value is 11.6 fold.

**Q.** And the “Fold improvement of 4K21 H93Y alone on T117 (IC50, TF-1 proliferation)” value (human GM-CSF T117 [6])?
**A.** The value was 0.1 fold.

**Q.** And the “Fold improvement of humanized parental 4K21 on T117 (IC50, TF-1 proliferation)” value (human GM-CSF T117 [6])?
**A.** The value was 1 fold.

**Q.** What about the “IC50, inhibition … (32 pM GM-CSF)” value (human GM-CSF T117 [6]) of the same binder?
**A.** The value was 1400 pM.

**Q.** And the “Fold improvement of 4K21 H93Y alone on macaca (IC50, TF-1 proliferation)” value (macaca GM-CSF [7])?
**A.** The value was 0.1 fold.

**Q.** What about the “Fold improvement of humanized parental 4K21 on macaca (IC50, TF-1 proliferation)” value (macaca GM-CSF [7]) of the same binder?
**A.** The value was 1 fold.

**Q.** What about the “Fold macaca/human I117 (IC50, TF-1 proliferation)” value (macaca GM-CSF [7]) of the same binder?
**A.** Its value is 6.6 fold.

**Q.** And the “IC50, inhibition … (32 pM GM-CSF)” value (macaca GM-CSF [7])?
**A.** The value was 793 pM.

**Q.** And the “IC50, inhibition of GM-CSF induced IL-8 secretion in U937 cells (65 pM GM-CSF)” value (“IC50, inhibition … (65 pM GM-CSF)” below) (human GM-CSF I117 [8])?
**A.** Its value is 170 pM.

**Q.** What about the “IC50, inhibition … (65 pM GM-CSF)” value (human GM-CSF T117 [9]) of the same binder?
**A.** Its value is 930 pM.

**Q.** What about the “IC50, inhibition … (65 pM GM-CSF)” value (macaca GM-CSF [10]) of the same binder?
**A.** Its value is 1120 pM.

**Q.** And the “Emax (%), inhibition of CD11b upregulation on neutrophils after GM-CSF stimulation” value (human GM-CSF I117 [11])?
**A.** Its value is 65%.

**Q.** And the “IC50, inhibition of CD11b upregulation on neutrophils after GM-CSF stimulation” value (human GM-CSF I117 [11])?
**A.** Its value is 3.06 nM.

**Q.** What about the “Emax (%), inhibition of CD11b upregulation on neutrophils after GM-CSF stimulation” value (human GM-CSF T117 [12]) of the same binder?
**A.** The value was 68%.

**Q.** What about the “IC50, inhibition of CD11b upregulation on neutrophils after GM-CSF stimulation” value (human GM-CSF T117 [12]) of the same binder?
**A.** Its value is 31.6 nM.

**Q.** And the Kd (human GM-CSF I117 [13])?
**A.** Its Kd is 0.021 nM.

**Q.** What about the Kd (human GM-CSF T117 [14]) of the same binder?
**A.** The Kd was 0.164 nM.

**Q.** And the Kd (macaca GM-CSF [15])?
**A.** Its Kd is 0.063 nM.

**Q.** And the “fold preference for GM-CSF I117 versus T117” value (human GM-CSF I117 [16])?
**A.** Its value is > 10 fold.

Reference: patent US20140065163A1 (MERCK SERONO S A, published 2014)
